Assay [1] addresses T1, IL-TIF (Homo sapiens, UniProt Q9GZX6).
T1 sequence (Q9GZX6 13-179 limits assumed): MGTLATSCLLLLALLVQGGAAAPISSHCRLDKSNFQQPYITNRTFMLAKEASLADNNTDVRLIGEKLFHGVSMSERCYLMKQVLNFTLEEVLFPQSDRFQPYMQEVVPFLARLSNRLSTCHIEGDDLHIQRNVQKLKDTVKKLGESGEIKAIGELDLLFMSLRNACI
The experiment in a line: SAA induction by IL-TIF in mice, inhibition by zcytor16-Fc4. The format is in vivo. The note with it: 3 μg IL-TIF IP with 20-100 ug zcytor16-Fc4 IP 15 minutes before. As for the experimental part:
To assess whether zcytor16 could inhibit the SAA induction by IL-TIF mice (female, C3H/HEJ, 8 weeks old; Jackson Labs, Bar Harbor, Me.) were divided into five groups of three animals each and treated by IP injection of proteins as shown in Table 15 below:
The zcytor16 injections preceded the IL-TIF injection by 15 minutes. Both protein injections were given by the intraperitoneal route. A blood sample was taken from each mouse prior to treatment, then at 2 and 6 hours after treatment. Serum was prepared from each of the samples for measurement of SAA and IL-TIF.
An ELISA was performed as described previously to determine the level of SAA in mice treated with IL-TIF and a soluble receptor for IL-TIF, zcytor16-Fc4 described herein.

In assay [2] the target is T1, IL-TIF. Nature of the assay: Inhibition of IL-TIF-induced proliferation of BaF3/CRF2-4/zcytor11 cells by soluble receptors. The format is cell-based. The note with it: 100 pg/ml IL-TIF. As for the experimental part:
BaF3/CRF2-4/zcytor11 cells described herein were spun down and washed in PBS 2 times to ensure the removal of the mIL-3, and then spun a third time and re-suspended in the complete media (RPMI 1640, 10% FBS, 1% GlutaMAX, 1% Sodium Pyruvate), but without mIL-3 (hereinafter referred to as “mIL-3 free media”). Cells were then counted in a hemocytometer. Cells were plated in a 96-well format at 5000 cells per well in a volume of 100 μl per well using the mIL-3 free media.
IL-TIF protein (SEQ ID NO:3) was diluted to 200 pg/ml in mIL-3 free media. Zcytor16-Fc4 fusion protein (described herein) was diluted to 1 μg/ml in the mIL-3 free/IL-TIF media on the top row of the plate, and then diluted serially 1:2 down the remaining 7 rows on the 96-well plate, leaving a volume of 100 μl in each well. This was then added to the 100 μl of cells, for a final IL-TIF concentration of 100 pg/ml in all wells, and final Zcytor16-Fc4 concentrations of approximately […], 0.016, and 0.008 μg/ml in a total assay volume of 200 μl. CRF2-4/zcytor11-Fc4 was diluted to 8 μg/ml in the mIL-3 free/IL-TIF media on the top row of the plate, and then diluted serially 1:2 down the remaining 7 rows on the 96-well plate, leaving a volume of 100 μl in each well. This was then added to the 100 μl of cells, for a final IL-TIF concentration of 100 pg/ml in all wells, and final CRF2-4/zcytor11-Fc4 concentrations of approximately […], 0.25, 0.125 and 0.063 μg/ml, in a total assay volume of 200 The assay plates were incubated at 37° C., 5% CO2 for 4 days at which time Alamar Blue (Accumed, Chicago, Ill.) was added at […]. Plates were again incubated at 37° C., 5% CO2 for 16 hours. Alamar Blue gives a fluourometric readout based on number of live cells, and is thus a direct measurement of cell proliferation in comparison to a negative control. Plates were read on the Wallac Victor 2 1420 Multilabel Counter (Wallac, Turku, Finland) at wavelengths 530 (Excitation) and 590 (Emmssion). […] IL-TIF alone stimulated the cells 13-fold over background.

Assay [3] addresses T2, IL-TIF (Homo sapiens, UniProt Q9GZX6).
T2 construct: made in house; host or cells: BHK cells
T2 sequence (Q9GZX6 34-179): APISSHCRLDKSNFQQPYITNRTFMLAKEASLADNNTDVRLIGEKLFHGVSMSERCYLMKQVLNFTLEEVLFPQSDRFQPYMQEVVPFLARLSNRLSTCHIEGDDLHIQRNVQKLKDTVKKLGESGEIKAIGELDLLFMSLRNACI
Nature of the assay: Effect of zcytor16 on IL-TIF-induced acanthosis. The format is in vivo, mice. The note with it: for Average Acanthosis: day 8, score 0-3. The method, then:
Mice (female, C3H/HEJ, 8 weeks old; Jackson Labs, Bar Harbor, Me.) were divided into eight groups of eight animals each. IL-TIF was administered by constant infusion via mini-osmotic pumps, as described in example 32a. Alzet mini-osmotic pumps (model 2001; Alza corporation Palo Alto, Calif.) were loaded under sterile conditions with IL-TIF protein (A#601F, 0.22 mL) diluted in phosphate buffered saline (pH 7.0) to a concentration within the pump of 0.22 mg/mL for group 1-2 mice, 0.45 mg/mL for group 3-4 mice, 0.9 mg/mL for group 5-6 mice, or 0 mg/mL (diluent only) for group 7-8 mice. These pumps are designed to deliver their contents at a rate of 0.5 μl per hour over a period of 14 days. Using this nominal rate of infusion, dose levels were calculated to be […] and 0 μg/day for groups 7-8. For each pair of groups at a given dose level of IL-TIF, one of the groups was injected three times (days 1, 3, and 5) with 0.1 mg of human zcytor16 Fc protein (described herein) by the interperitoneal route. The other group was injected in the same fashion with vehicle (PBS).
On day 8 of the study, mice were euthanized and an approximately 1 cm square sample of skin surrounding the pump area was collected from each mouse. The skin was fixed in 10% neutral buffered formalin. Formalin fixed samples of skin were embedded in paraffin, routinely processed, sectioned at 5 um and stained with hematoxylin and eosin. The tissues were microscopically examined in blinded fashion by an ACVP board certified veterinary pathologist. This study was scored in a different manner than the previous example. The number of layers in the epidermis, from stratum basalis to stratum granulosum, was determined Based on the results, the sections were scored as follows: O-normal (2-3 layers), 1-mild thickening (3-4 layers), 2-moderate thickening (4-6 layers) and 3-severe thickening (>6 layers).

B1: zcytor16-Fc4: soluble receptor for IL-TIF, zcytor16 fused to Fc4; IL-TIF antagonist (protein)
chain: TQSTHESLKPQRVQFQSRNFHNILQWQPGRALTGNSSVYFVQYKIYGQRQWKNKEDCWGTQELSCDLTSETSDIQEPYYGRVRAASAGSYSEWSMTPRFTPWWETKIDPPVMNITQVNGSLLVILHAPNLPYRYQKEKNVSIEDYYELLYRVFIINNSLEKEQKVYEGAHRAVEIEALTPHSSYCVVAEIYQPMLDRRSQRSEERCVEIPEPRSSDKTHTCPPCPAPEAEGAPSVFLFPPKPKDTLMISRTPEVTCVVVDVSHEDPEVKFNWYVDGVEVHNAKTKPREEQYNSTYRVVSVLTVLHQDWLNGKEYKCKVSNKALPSSIEKTISKAKGQPREPQVYTLPPSRDELTKNQVSLTCLVKGFYPSDIAVEWESNGQPENNYKTTPPVLDSDGSFFLYSKLTVDKSRWQQGNVFSCSVMHEALHNHYTQKSLSLSPGK
Consider B1, for which, in the assay with IL-TIF [1], the “level of SAA” value is “reduction in the level of SAA induced by IL-TIF alone to background levels”. In addition, the “concentrations completely inhibiting proliferation” value with IL-TIF [2] lay in the range of 0.025 to 1 µg/mL. Also, the “concentrations partially inhibiting proliferation, lower end” value in the assay with IL-TIF [2] is not below 8 ng/mL. Further, the “inhibition of the proliferative effect of IL-TIF” value with IL-TIF [2] is on record as “strong dose-dependant inhibition”. Also, in the assay with IL-TIF [3] (100 μg zcytor16 (3 injections), mice treated with 5 μg IL-TIF/day), the “effect on epidermal thickening” value was “decreased the amount of epidermal thickening”. Besides, the “Average Acanthosis” value in the assay with IL-TIF [3] (pump 2.5 μg IL-TIF/day + 100 μg zcytor16 (3 injections)) was found to be 0.8; with IL-TIF [3] (pump 5 μg IL-TIF/day + 100 μg zcytor16 (3 injections)) it was 0.6; in the assay with IL-TIF [3] (pump 10 μg IL-TIF/day + 100 μg zcytor16 (3 injections)), 1.9; with IL-TIF [3] (pump Vehicle + 100 μg zcytor16 (3 injections)), 0.0.

For the origin of these results see patent publication US8524227B2, “Anti-IL-TIF antibodies” (ZymoGenetics, Inc., priority 2002, dated 2013).
